According to patent US5851983A, “Elastase inhibitory polypeptide and process for production thereof by recombinant gene technology” (Teijin Limited, priority 1987, dated 1998):

How the values were obtained:
Format in all cases: biochemical
Human plasma kallikrein [1] = molecular target: T1, Human plasma kallikrein (Homo sapiens, UniProt P03952); assay: Assay for kallikrein inhibitory activity (Example 25); conditions: final concentration up to ×10^-5 M; enzyme 1.0 × 10^-7 M
T1 construct: (7) Human plasma kallikrein (Kabi, Daiichi Kagaku Yakuhin); purchased Kabi (via Daiichi Kagaku Yakuhin); host or cells: human plasma
T1 sequence (P03952 391-638 limits assumed): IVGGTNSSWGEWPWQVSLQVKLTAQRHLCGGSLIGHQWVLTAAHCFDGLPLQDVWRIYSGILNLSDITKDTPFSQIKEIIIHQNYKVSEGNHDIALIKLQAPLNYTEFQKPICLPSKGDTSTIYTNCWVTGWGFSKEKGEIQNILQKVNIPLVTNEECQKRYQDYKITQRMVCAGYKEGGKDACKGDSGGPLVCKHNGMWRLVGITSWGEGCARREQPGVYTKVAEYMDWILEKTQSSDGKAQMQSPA
T1 sequence (P03952 20-390 partner limits assumed): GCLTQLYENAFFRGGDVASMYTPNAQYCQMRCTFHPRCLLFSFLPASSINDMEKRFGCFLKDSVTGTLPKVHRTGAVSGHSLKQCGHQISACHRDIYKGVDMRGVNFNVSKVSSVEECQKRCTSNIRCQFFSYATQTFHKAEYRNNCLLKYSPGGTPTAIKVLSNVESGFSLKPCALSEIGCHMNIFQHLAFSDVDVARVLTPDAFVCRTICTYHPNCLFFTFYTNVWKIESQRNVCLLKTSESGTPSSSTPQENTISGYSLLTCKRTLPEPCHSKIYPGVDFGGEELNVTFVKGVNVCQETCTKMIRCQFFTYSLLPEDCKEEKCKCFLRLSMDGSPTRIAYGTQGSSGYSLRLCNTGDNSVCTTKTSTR
Method: H. Human plasma kallikrein (Protogene, Funakoshi Yakuhin)
Kallikrein: 50 mM Tris-HCl, 361 mM NaCl, 0.01 mg/ml polybrene (pH 7.8) […]
(§1) Substrate solution: for the enzymes F, G, H and I, the following substrate f, g, h or i, respectively, was dissolved to a final concentration shown in Table 14.
h. H.D-Pro-Phe-Arg-pNA (Kabi Vitram)
(§2) To wells of an ELISA 96-well microtiter plate, were added a solution of (Arg^59 -Ala^107) SLPI obtained in Example 23 and then the enzyme solution, and the mixture was incubated at 37° C. for 10 minutes. Next, the substrate solution was added to develop the color, whose absorption was then measured at 405 nm. As a control, SLPI was used.

Bovine spleen trypsin = molecular target: T2, Bovine spleen trypsin (Bos taurus, UniProt P00760); assay: Assay for trypsin inhibitor activity (Example 24); conditions: enzyme 2 × 10^-7 M, substrate 1.0 × 10^-3 M
T2 construct: purchased Sigma
T2 sequence (P00760 24-246): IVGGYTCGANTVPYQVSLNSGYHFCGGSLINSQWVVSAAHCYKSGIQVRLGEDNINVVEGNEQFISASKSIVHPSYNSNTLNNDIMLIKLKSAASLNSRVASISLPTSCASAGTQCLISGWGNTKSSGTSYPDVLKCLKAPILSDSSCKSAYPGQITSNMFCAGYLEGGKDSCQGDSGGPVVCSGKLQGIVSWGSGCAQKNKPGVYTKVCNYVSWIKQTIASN
Method: (§3) The following assay method was used.
(§4) Buffer: 0.1M (2-hydroxyethyl)piperazine-N'-2-ethansulfonic acid (HEPES), 0.5M NaCl, pH 7.5.
(§5) Enzyme concentration: the following enzyme was dissolved in the above-mentioned buffer to a concentration 9 times that shown in Table 12.
B. Bovine spleen trypsin (Sigma)
Substrate solution: for the enzymes A, B, C, D and E, the following substrate a, b, c, d or e, respectively, was dissolved in a solution of DMSO+the above-mentioned buffer (1:9) (note, final concentration of DMSO was 10% in the buffer) to a concentration of 9 times that shown in Table 12. […]
(§6) To wells of an ELISA 96-well microtiter plate, were added 120 μl of the buffer and the 20 μl of a sample solution of (Arg^59 -Ala^107) SLPI obtained in Example 23, followed by 20 μl of the enzyme solution. The mixture was reacted at 37° C. for 10 minutes. Next, 20 μl of the substrate was added, and developed at 37° C. The developed color was measured by absorption at 405 nm.
(§7) As a control the same procedure was carried out using SLPI.

Porcine FXa = assay: Assay for Fxa inhibitory activity (Example 25); conditions: final concentration up to ×10^-5 M; enzyme 1.0 × 10^-8 M
Method: I. Porcine FXa (Daichi Seiyaku)
(§8) Buffer: Buffer solution for each enzyme is as follow. Thrombin and FXa: 50 mM Tris-HCl, 7.5 mM EDTA-2Na, 175 mM NaCl (pH 8.4) […]
as §1
i. Ratio 1:1 mixture of the following compounds: [drawing 5]
as §2

[2] = molecular target: T3, polymorphonuclear leucocyte elastase from human sputum (Homo sapiens, UniProt P08246); assay: Assay for elastase inhibitor activity (Example 24); conditions: enzyme 2 × 10^-8 M, substrate 3.0 × 10^-4 M
T3 construct: Polymorphonuclear leukocyte elastase from human sputum (EPC Co; Funakoshi Yakuhin); purchased EPC Co. (via Funakoshi Yakuhin); host or cells: human sputum
T3 sequence (P08246 30-267): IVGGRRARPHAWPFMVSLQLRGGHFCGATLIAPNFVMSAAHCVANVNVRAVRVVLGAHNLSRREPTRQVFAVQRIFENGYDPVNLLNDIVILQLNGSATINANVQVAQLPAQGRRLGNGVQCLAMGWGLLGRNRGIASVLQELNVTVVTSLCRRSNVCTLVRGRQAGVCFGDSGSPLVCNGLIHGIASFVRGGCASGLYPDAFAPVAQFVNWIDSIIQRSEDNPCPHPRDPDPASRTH
Method: as §3, §4, §5
(§9) A. Polymorphonuclear leucocyte elastase from human sputum (EPC Co., Funakoshi Yakuhin)
Substrate solution: for the enzymes A, B, C, D and E, the following substrate a, b, c, d or e, respectively, was dissolved in a solution of DMSO+the above-mentioned buffer (1:9) (note, final concentration of DMSO was 10% in the buffer) to a concentration of 9 times that shown in Table 12.
(§10) a. MeO-Suc-Ala-Ala-Pro-Val-pNA (Bachem) […]
as §6, §7

[3] = test system: polymorphonuclear leucocyte elastase from human sputum; assay: Inhibitory constant (Ki) assay, elastase (Example 26); conditions: from Table 16
Method: Method for assay is as follow.
Buffer: 0.1M N-(2-hydroxyethyl)piperazine-N'-2-ethanesulfonic acid (HEPES), 1.0M NaCl, 0.1% polyethylene glycol (pH 7.5)
Enzyme solution: the following enzyme was dissolved in the above-mentioned buffer to a concentration 9 times that shown in Table 15.
as §9
Substrate solution: for the enzymes A and B, the following substrate a or b was dissolved in a solution of DMSO+the above-mentioned buffer (1:9), or in DMSO, respectively.
as §10
To wells of an ELISA 96-well microtiter plate, were added 120 μl of the buffer, 20 μl of a sample solution of (Arg^59 -Ala^107) SLPI obtained in Example 23, and 20 μl of the enzyme solution in this order, an the mixture was reacted at 37° C. for 1 hour. Next, 20 μl of the substrate was added to develop at 25° C. Absorption of the developed color was measured at 405 nm. As a control, SLPI was used.
On the basis of the result thus obtained, an inhibitory constant (Ki) of (Arg^59 -Ala^107) SLPI of the present invention was calculated according to the method of Henderson (Henderson, P. J. F. (1972), Biochem. J. 127, 321-333).

Human plasma thrombin [4] = molecular target: T4, Human plasma thrombin (Homo sapiens, UniProt P00734); assay: Assay for thrombin inhibitory activity (Example 25); conditions: final concentration up to ×10^-5 M; enzyme 3 × 10^-9 M
T4 construct: (5) Human plasma thrombin (Kabi, Daiichi Kagaku Yakuhin); purchased Kabi (via Daiichi Kagaku Yakuhin); host or cells: human plasma
Method: F. Human plasma thrombin (Sigma)
as §8, §1
f. H.D-Phe-Pip-Arg-pNA (Kabi Vitrum)
as §2

Human plasma plasmin [5] = molecular target: T5, Human plasma plasmin (Homo sapiens, UniProt P00747); assay: Assay for plasmin inhibitory activity (Example 25); conditions: final concentration up to ×10^-5 M; enzyme 1.0 × 10^-7 M
T5 construct: (6) Human plasma plasmin (Kabi, Daiichi Kagaku Yakuhin); purchased Kabi (via Daiichi Kagaku Yakuhin); host or cells: human plasma
T5 sequence (P00747 581-810 limits assumed): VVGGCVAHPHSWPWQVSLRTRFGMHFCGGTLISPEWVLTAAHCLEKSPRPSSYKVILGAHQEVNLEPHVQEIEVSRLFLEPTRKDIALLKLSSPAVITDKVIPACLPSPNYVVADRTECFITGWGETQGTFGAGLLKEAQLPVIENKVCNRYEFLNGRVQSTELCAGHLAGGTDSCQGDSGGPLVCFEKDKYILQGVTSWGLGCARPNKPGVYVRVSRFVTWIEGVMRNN
T5 sequence (P00747 97-580 partner limits assumed): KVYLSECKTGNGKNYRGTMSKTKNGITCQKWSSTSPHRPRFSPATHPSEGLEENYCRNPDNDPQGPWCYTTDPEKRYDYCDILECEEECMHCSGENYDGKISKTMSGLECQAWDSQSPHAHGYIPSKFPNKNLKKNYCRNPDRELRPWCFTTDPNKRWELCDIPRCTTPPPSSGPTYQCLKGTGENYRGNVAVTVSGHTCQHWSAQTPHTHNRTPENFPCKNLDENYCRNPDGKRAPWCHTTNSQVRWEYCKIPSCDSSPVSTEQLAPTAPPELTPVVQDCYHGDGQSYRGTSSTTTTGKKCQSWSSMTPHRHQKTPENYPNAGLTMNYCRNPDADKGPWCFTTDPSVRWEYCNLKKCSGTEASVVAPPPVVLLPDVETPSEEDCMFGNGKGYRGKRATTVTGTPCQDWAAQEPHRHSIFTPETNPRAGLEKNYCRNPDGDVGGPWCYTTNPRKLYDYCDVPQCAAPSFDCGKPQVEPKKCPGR
Method: G. Human plasma plasmin (sigma)
Plasmin: 50 mM Tris-HCl, 100 mM NaCl (pH 7.4) […]
as §1
g. H.D-Val-Leu-Lys-pNA (Kabi Vitrum)
as §2

Human plasma kallikrein [6] = molecular target: T1, Human plasma kallikrein; assay: Serine protease inhibitory assay, Example 12: kallikrein; conditions: read-out: concentration of inhibitory protein which exhibits a 50% inhibition; enzyme 10^-8 M; H-D-Pro-Phe-Arg-pNA 0.1 mM; 37° C.
Method: (§11) Assay of serine protease inhibitory activity of active-type (Asn^55 -Ala^107) SLPI fragment polypeptide
(§12) The active-type (Asn^55 -Ala^107) SLPI fragment polypeptide obtained by refolding by the procedure shown in Example 11 as measured to determine its inhibitory activity to various serine proteases. The assay result thereof is shown as follows.
(§13) Enzyme solution: The following enzymes were dissolved in the above-mentioned buffer solutions at a concentration ten-times higher than the concentration shown in Table 4.
(7) Human plasma kallikrein (Kabi, Daiichi Kagaku Yakuhin)
(§14) Substrate solution: For the above-mentioned enzymes (1) to (7), the following substrates (1) to (7), respectively, were dissolved in dimethyl sulfoxyde to a concentration of 10 mM to prepare stock solutions, which were then dissolved in the above-mentioned buffer solution to concentration ten-times higher than final concentrations, to prepare substrate solutions. […]
(§15) To each well of a 96-well ELISA microplate were added 140 μl of the above-mentioned buffer, 20 μl of a test solution, and 20 μl of the enzyme solution, and the mixture was stirred at 37° C. for 30 minutes. Next, 20 μl of the substrate solution was added to the well, the mixture was stirred at 37° C. for one hour to develop same, and the absorbance at 405 nm was measured.

[7] = molecular target: T6, Porcine pancreatic elastase (Sus scrofa, UniProt P00772); assay: Serine protease inhibitory assay, Example 12: porcine elastase; conditions: read-out: concentration of inhibitory protein which exhibits a 50% inhibition; enzyme 6 × 10^-9 M; Suc-Ala-Ala-Ala-pNA 0.1 mM; 37° C.
T6 construct: (4) Porcine pancreatic elastase (Sigma); purchased Sigma; host or cells: porcine pancreas
T6 sequence (P00772 27-266): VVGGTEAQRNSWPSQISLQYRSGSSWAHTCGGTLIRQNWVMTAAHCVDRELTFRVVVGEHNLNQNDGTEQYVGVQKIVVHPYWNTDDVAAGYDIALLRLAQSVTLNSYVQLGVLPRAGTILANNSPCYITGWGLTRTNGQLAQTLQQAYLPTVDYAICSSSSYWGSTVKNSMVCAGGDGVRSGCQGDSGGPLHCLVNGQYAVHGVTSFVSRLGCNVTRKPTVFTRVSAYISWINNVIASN
Method: as §11, §12, §13
(4) Porcine pancreatic elastase (Sigma)
as §14, §15

Human plasma plasmin [8] = molecular target: T5, Human plasma plasmin; assay: Serine protease inhibitory assay, Example 12: plasmin; conditions: read-out: concentration of inhibitory protein which exhibits a 50% inhibition; enzyme 10^-8 M; H-D-Val-Leu-Lys-pNA 0.1 mM; 37° C.
Method: as §11, §12, §13
(6) Human plasma plasmin (Kabi, Daiichi Kagaku Yakuhin)
as §14, §15

Human plasma thrombin [9] = molecular target: T4, Human plasma thrombin; assay: Serine protease inhibitory assay, Example 12: thrombin; conditions: read-out: concentration of inhibitory protein which exhibits a 50% inhibition; enzyme 10^-11 M; H-D-Phe-Pip-Arg-pNA 0.1 mM; 37° C.
Method: as §11, §12, §13
(5) Human plasma thrombin (Kabi, Daiichi Kagaku Yakuhin)
as §14, §15

[10] = molecular target: T7, Calf pancreatic chymotrypsin (Bos taurus, UniProt P00766); assay: Serine protease inhibitory assay, Example 12: chymotrypsin; conditions: read-out: concentration of inhibitory protein which exhibits a 50% inhibition; enzyme 10^-8 M; Suc-Ala-Ala-Pro-Phe-pNA 0.1 mM; 37° C.
T7 construct: (3) Calf pancreatic chymotrypsin (Sigma); purchased Sigma; host or cells: calf pancreas
Method: as §11, §12, §13
(3) Calf pancreatic chymotrypsin (Sigma)
as §14, §15

Calf pancreatic trypsin = molecular target: T8, Calf pancreatic trypsin (Bos taurus, UniProt P00760); assay: Serine protease inhibitory assay, Example 12: trypsin; conditions: read-out: concentration of inhibitory protein which exhibits a 50% inhibition; enzyme 10^-7 M; Bz-Arg-pNA 1.0 mM; 37° C.
T8 construct: (2) Calf pancreatic trypsin (Sigma); purchased Sigma; host or cells: calf pancreas
T8 sequence (P00760 24-246): T2 sequence (P00760 24-246)
Method: as §11, §12, §13
(2) Calf pancreatic trypsin (Sigma)
as §14, §15
Moreover, an inhibitory constant Ki of the present (Asn^55 -Ala^107) SLPI was calculated on the basis of the above data by a method of Dixon, M. and Webb, E. C. (1979), Enzyme, Longman or a method of Henderson, P. J. F. (1972) Biochem. J., 127, 321-333.

[11] = molecular target: T9, polymorphonuclear leukocyte elastase from human sputum (Homo sapiens, UniProt P08246); assay: Serine protease inhibitory assay, Example 12: human elastase; conditions: read-out: concentration of inhibitory protein which exhibits a 50% inhibition; enzyme 10^-9 M; MeO-Suc-Ala-Ala-Pro-Val-pNA 0.3 mM; 37° C.
T9 construct: Polymorphonuclear leukocyte elastase from human sputum (EPC Co; Funakoshi Yakuhin); purchased EPC Co. (via Funakoshi Yakuhin); host or cells: human sputum
T9 sequence (P08246 30-267): T3 sequence (P08246 30-267)
Method: as §15

Row | Substance | inhibitory activity to kallikrein (Human plasma kallikrein [1]) | IC50 (Bovine spleen trypsin) [µM] | inhibitory activity to FXa (Porcine FXa) | IC50 [2] [µM] | relative ratio of inhibitory activity on trypsin to that on elastase (Ki(T)/Ki(E)) [3] | inhibitory activity to thrombin (Human plasma thrombin [4]) | inhibitory activity to plasmin (Human plasma plasmin [5]) | IC50 (Human plasma kallikrein [6]) [µM] | IC50 [7] [µM] | IC50 (Human plasma plasmin [8]) [µM] | IC50 (Human plasma thrombin [9]) [µM] | IC50 [10] [µM] | IC50 (Calf pancreatic trypsin) [µM] | IC50 [11] [µM]
1 | (Arg^59 -Ala^107) SLPI: polypeptide having an amino acid sequence starting with the 59th Arg and ending at the 107th Ala of SLPI (RKPGKCPVTYGQCLMLNPPNFCEMDGQCKRDLKCCMGMCGKSCVSPVKA) | did not exhibit inhibitory activity | 2 | did not exhibit inhibitory activity | 0.012 | about 14,000 | did not exhibit inhibitory activity | did not exhibit inhibitory activity | – | – | – | – | – | – | –
2 | Aprotinin | – | – | – | – | – | – | – | 0.07 | > 2 | 0.005 | > 2 | 0.05 | 0.1 | 0.3
3 | α1 -PI: α1 -AT (Sigma), inhibitory protein used as a positive control | – | – | – | – | – | – | – | > 2 | 0.3 | > 2 | > 2 | 2 | 0.2 | –
